Molecular target: T1, Phi29 DNA polymerase (Bacillus phage phi29) (UniProt P03680)
T1 sequence: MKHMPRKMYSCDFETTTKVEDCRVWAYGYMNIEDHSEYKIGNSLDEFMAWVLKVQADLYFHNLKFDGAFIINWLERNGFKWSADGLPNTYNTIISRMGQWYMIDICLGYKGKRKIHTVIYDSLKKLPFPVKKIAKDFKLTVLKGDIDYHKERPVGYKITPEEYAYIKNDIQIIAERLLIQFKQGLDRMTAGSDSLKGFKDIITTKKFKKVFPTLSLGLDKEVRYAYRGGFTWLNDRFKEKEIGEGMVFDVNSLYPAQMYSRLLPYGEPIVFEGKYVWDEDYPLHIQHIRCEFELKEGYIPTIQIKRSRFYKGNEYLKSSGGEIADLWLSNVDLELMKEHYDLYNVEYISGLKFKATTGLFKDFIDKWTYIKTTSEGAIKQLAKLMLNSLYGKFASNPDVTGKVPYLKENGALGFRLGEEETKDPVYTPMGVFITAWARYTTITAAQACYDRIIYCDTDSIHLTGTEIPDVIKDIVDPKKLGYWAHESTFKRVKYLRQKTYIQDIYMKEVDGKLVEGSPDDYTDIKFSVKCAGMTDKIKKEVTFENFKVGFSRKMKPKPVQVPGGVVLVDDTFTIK
Assay: cleavage_in_vitro
Details: Tango buffer, 37 C, 3 h; Mg2+, Mn2+ or Co2+ required; scale: % increase in acid-soluble product vs no enzyme

[3H]poly(A) RNA
activity: 30

From US20090202993
